From patent US20170247475A1 (Boehringer Ingelheim, published 2017)
Residue numbers refer to the chain shown, from its start. Names may count otherwise.

Columns and labels:
[1] = target: T1, recombinant human VEGF165 (human, UniProt P15692-4 27-191); assay: Biacore, periplasmic extract on hVEGF165 chip
T1 construct: also called hVEGF165; rhVEGF165
Description: (§1) Dissociation rates of inhibitory VHHs are analyzed on Biacore (Biacore T100 instrument, GE Healthcare). HBS-EP+ buffer is used as running buffer and experiments are performed at 25° C. […] After immobilization, surfaces are deactivated with 10 min injection of 1M ethanolamine pH8.5. A reference surface is activated and deactivated with respectively EDC/NHS and ethanolamine. Periplasmic extracts of VHHs are injected at a 10-fold dilution in running buffer for 2 min at 45 μl/min and allowed to dissociate for 10 or 15 min. Between different samples, the surfaces are regenerated with regeneration buffer. Data are double referenced by subtraction of the curves on the reference channel and of a blank running buffer injection. […] is evaluated by fitting a two phase decay model in the Biacore T100 Evaluation software v2.0.1.

[2] = target: T1, recombinant human VEGF165; assay: Biacore, periplasmic extract on hVEGF165 chip, two phase decay fit
Description: as §1

[3] = target: T1, recombinant human VEGF165; assay: Biacore epitope binning, VEGF165 captured on immobilised VEGFBII23B04
Description: Biacore-based epitope binning experiments are performed to investigate which VEGF binders bind to a similar or overlapping epitope as VEGFBII23B04. To this end, VEGFBII23B04 is immobilized on a CM5 sensor chip. […] Purified VHHs (100 nM) or periplasmic extracts (1/10 diluted) are then injected with a surface contact time of 240 seconds and a flow rate of 10 uL/minute. Between different samples, the surface is regenerated with regeneration buffer (100 mM HCl). Processed curves are evaluated with Biacore T100 Evaluation software.

[4] = target: T1, recombinant human VEGF165; assay: VEGF165/VEGFR2 AlphaScreen

T1 sequence (P15692 other isoform, or with tags, fused parts or gaps limits assumed): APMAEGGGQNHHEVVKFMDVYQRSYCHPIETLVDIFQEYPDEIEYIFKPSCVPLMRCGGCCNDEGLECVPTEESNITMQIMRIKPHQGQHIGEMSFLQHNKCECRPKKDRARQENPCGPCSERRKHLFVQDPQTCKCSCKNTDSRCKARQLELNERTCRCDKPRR

B1: VEGFBII22A10 (VHH)
VHH: EVQLVESGGGLVQPGDSLKLSCAFSGRTFSSYSMGWFRQAQGKEREFVVAISSSGGYIYDSVSLEGRFTISRDNTKNTVYLQTPSLKPEDTADYYCAASRAYGSSRLRLADTYDYWGQGTQVTVSS
notes: periplasmic extract
Binding level (RU) [1]: 229 RU | % fast [2]: 19%

B2: VEGFBII23A09 (VHH)
VHH: B1 VHH with S30G, T75S, D93V, A110P
notes: periplasmic extract
Binding level (RU) [1]: 247 RU | % fast [2]: 20%

B3: VEGFBII40H10 (VHH)
VHH: B1 VHH with V5M
notes: periplasmic extract
Binding level (RU) [1]: 200 RU | % fast [2]: 17%

B4: VEGFBII56E11 (VHH)
VHH: B1 VHH with T91A
notes: periplasmic extract
Binding level (RU) [1]: 76 RU | % fast [2]: 24%

B5: VEGFBII23F11 (VHH)
VHH: B1 VHH with S54G
notes: periplasmic extract
Binding level (RU) [1]: 134 RU | % fast [2]: 22%

B6: VEGFBII60A09 (VHH)
VHH: B1 VHH with K76R
notes: periplasmic extract
Binding level (RU) [1]: 106 RU | % fast [2]: 20%

B7: VEGFBII39G04 (VHH)
VHH: EVPLVESGGGLVQAGDSLRLSCAASGRTFSSYSMGWFRQAQGKEREFVVAISSSGNYKYDSASLEGRFTISRDNTKNTVYLQINSLKPEDTAVYYCAASRAYGSSRLRLGDTYDYWGQGTQVTVSS
notes: periplasmic extract
Binding level (RU) [1]: 210 RU | % fast [2]: 40%

B8: VEGFBII62A09 (VHH)
VHH: B1 VHH with G10D, F24A, D93V
notes: periplasmic extract
Binding level (RU) [1]: 84 RU | % fast [2]: 23%

B9: VEGFBII22B06 (VHH)
VHH: B1 VHH with F24A, D93V
notes: periplasmic extract
Binding level (RU) [1]: 168 RU | % fast [2]: 23%

B10: VEGFBII23F05 (VHH)
VHH: B7 VHH with P3Q, A62V, E89K
notes: periplasmic extract
Binding level (RU) [1]: 198 RU | % fast [2]: 29%

B11: VEGFBII23G03 (VHH)
VHH: B1 VHH with S30G, T75S, D93V, A110P, D111G
notes: periplasmic extract
Binding level (RU) [1]: 141 RU | % fast [2]: 28%

B12: VEGFBII40G07 (VHH)
VHH: B1 VHH with T78A
notes: periplasmic extract
Binding level (RU) [1]: 139 RU | % fast [2]: 19%

B13: VEGFBII42A05 (VHH)
VHH: B1 VHH with T83M
notes: periplasmic extract
Binding level (RU) [1]: 118 RU | % fast [2]: 25%

B14: VEGFBII22B07 (VHH)
VHH: B7 VHH with P3Q, A62V
notes: periplasmic extract
Binding level (RU) [1]: 328 RU | % fast [2]: 31%

B15: VEGFBII62D10 (VHH)
VHH: B7 VHH with P3Q, G8E, A62V
notes: periplasmic extract
Binding level (RU) [1]: 94 RU | % fast [2]: 40%

B16: VEGFBII30E07 (VHH)
VHH: B7 VHH with P3Q, A62V, Q121R
notes: periplasmic extract
Binding level (RU) [1]: 226 RU | % fast [2]: 29%

B17: VEGFBII39E02 (VHH)
VHH: B1 VHH with S17P
notes: periplasmic extract
Binding level (RU) [1]: 181 RU | % fast [2]: 13%

B18: VEGFBII31C07 (VHH)
VHH: B1 VHH with P14T, K19R, F24A, R27G
notes: periplasmic extract
Binding level (RU) [1]: 77 RU | % fast [2]: 25%

B19: VEGFBII42D05 (VHH)
VHH: B1 VHH with D93V
notes: periplasmic extract
Binding level (RU) [1]: 77 RU | % fast [2]: 26%

B20: VEGFBII07D08 (VHH)
VHH: EVQLVESGGGLVQTGGSLRLSCAASGRTFSNYAMAWFRQAPGKEREFVSAINQRGSNTNYADSVKGRFTISRDSAKNSVFLQMNSLKPEDTAVYYCAASTWYGYSTYARREEYRYWGQGTQVTVSS
binding result [3]: binds

B21: VEGFBII41G03 (VHH)
VHH: EVQLVESGGGLVQPGDSLKLSCAFSGRTFSSYSMAWFRQAQGKEREFVVAISSGGFIYDAVSLEGRFTISRENTKNTVYLQTPSLKPEDTAVYYCAASRAYGSSRLRLADTYDYWGQGTQVTVSS
notes: periplasmic extract
Binding level (RU) [1]: 332 RU | % fast [2]: 20%

B22: VEGFBII62F02 (VHH)
VHH: B21 VHH with A35G, S52A, F56Y, E72D, N76D
notes: periplasmic extract
Binding level (RU) [1]: 205 RU | % fast [2]: 21%

B23: VEGFBII61A01 (VHH)
VHH: B21 VHH with P14A, D16G, K19R, A35G, F56Y, I57K, E72D, G102A
notes: periplasmic extract
Binding level (RU) [1]: 275 RU | % fast [2]: 21%

B24: VEGFBII42F11 (VHH)
VHH: B21 VHH with A23V, F24A, F29S, M34V, A35G, F56Y, A60S, E64Q, E72D
notes: periplasmic extract
Binding level (RU) [1]: 100 RU | % fast [2]: 46%

B25: VEGFBII111D05 (VHH)
VHH: EVQLVESGGGLVQTGGSLRLSCEASGRTFSSYSMGWFRQAPGKEREFVVAISKGGYKYDSVSLEGRFTISRDNAKNTVYLQINSLRPEDTAVYYCASSRAYGSSRLRLADTYEYWGQGTLVTVSS
% inhibition [4]: 100% | IC50 [4]: 0.209 nM

B26: VEGFBII113A08 (VHH)
VHH: B25 VHH with A24V, R71K
% inhibition [4]: 100% | IC50 [4]: 0.253 nM

B27: VEGFBII114D03 (VHH)
VHH: B25 VHH with G16D, E23A, A24V, P41Q, R71K
% inhibition [4]: 100% | IC50 [4]: 0.227 nM

B28: VEGFBII113E03 (VHH)
VHH: B25 VHH with G16D, A24V, P41Q, R71K, I82M
% inhibition [4]: 100% | IC50 [4]: 0.29 nM

B29: VEGFBII114D02 (VHH)
VHH: B25 VHH with A24V
% inhibition [4]: 100% | IC50 [4]: 0.199 nM

B30: VEGFBII114C09 (VHH)
VHH: B25 VHH with T14P, G16D, A24V, R71K
% inhibition [4]: 100% | IC50 [4]: 0.215 nM

B31: VEGFBII111G06 (VHH)
VHH: B25 VHH with T14P, E23A, I82M
% inhibition [4]: 100% | IC50 [4]: 0.366 nM

B32: VEGFBII112D11 (VHH)
VHH: B25 VHH with T14P
% inhibition [4]: 100% | IC50 [4]: 0.221 nM

B33: VEGFBII118E10 (VHH)
VHH: B25 VHH with G16D, A24V, P41Q, S60A, R71K, R86K, L120Q
notes: VEGFBII23B04 with the S60A mutation, purified protein
% inhibition [4]: 100% | IC50 [4]: 0.189 nM

B34: VEGFBII06G02 (VHH)
VHH: EVQLVESGGGLVQPGGSLRLSCAASGNIFSNNAMAWYRQAPGKQRELVARISSGGGFTYYLDSVKGRFTVSRDNAKNTVYLQMNSLKPEDTAVYYCNAAYRTYNYWGQGTQVTVSS
binding result [3]: binds

B35: VEGFBII05B03 (VHH)
VHH: EVQLVESGGGLAQAGDSLRLSCAASGRSFSHYNMGWFRQAPGKEREFVASIRGGGGSTTYANSVKDRFTISRENAKNTVYLQMNSLKPEDTAVYYCAATAFYRGPYDYDYWGQGTQVTVSS
binding result [3]: binds

B36: VEGFBII05B02 (VHH)
VHH: EVQLVESGGGLVQAGGSLRLSCAASGRTFSTDDVGWFRQAPGKEREFVAVIRWSTGGTYTSDSVKGRFTLSRDNAKNTMYLQMNSLKPEDTAVYYCAARSRPLGAGAWYSGEKHYNYWGQGTQVTVSS
binding result [3]: binds

B37: VEGFBII03D12 (VHH)
VHH: EVQLVESGGGLVQAGGSLRLSCTASTSIYTITVMAWFRQAPGKEREFVAAITWSAPTTYYADSVKGRFTISRDNAKNTVYLRMNSLKPEDSAIYYCAADRFKGRSIVTPSDYRYWGQGTQVTVSS
binding result [3]: binds
